From article PMC10448178

Assays:
MntR (Bacillus subtilis) = target: T1, MntR (Bacillus subtilis) (UniProt P54512); assay: EMSA; settings: 10 mM Tris-HCl pH 7.5, 43 mM NaCl, 1 mM MnCl2, 1 mM DTT, 5% glycerol, 1 ug poly[dI-dC] per 14 ul, 23 C 15 min; 5% PAGE in 40 mM Tris-acetate at 4 C
T1 sequence: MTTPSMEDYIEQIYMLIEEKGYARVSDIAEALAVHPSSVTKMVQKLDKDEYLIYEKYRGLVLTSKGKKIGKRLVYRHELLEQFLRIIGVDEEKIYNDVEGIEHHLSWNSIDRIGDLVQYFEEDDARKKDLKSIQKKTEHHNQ

AhrC (Bacillus subtilis) = target: T2, AhrC (Bacillus subtilis) (UniProt P17893); assay: EMSA; settings: 10 mM Tris-HCl pH 7.5, 43 mM NaCl, 1 mM MnCl2, 1 mM DTT, 5% glycerol, 1 ug poly[dI-dC] per 14 ul, 23 C 15 min; 5% PAGE in 40 mM Tris-acetate at 4 C
T2 sequence: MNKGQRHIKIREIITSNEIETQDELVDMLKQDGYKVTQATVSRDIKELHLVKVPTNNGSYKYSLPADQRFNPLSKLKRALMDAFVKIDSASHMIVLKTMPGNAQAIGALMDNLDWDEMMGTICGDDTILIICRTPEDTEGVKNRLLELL

## ATGAAGCTTCAAAGAGTTTCCTTAAGGCAAATTATTTTATCTACATCATATGACCATCCCGGTTTCTTGTCAACCGAAAATGTTCAAAATACACTTCTGAATTTTTCCCTGTTATGTAACATGATATGTAGGGATTCGTGATAAGGTCCCATATAAAAAGACATCGTTTCATTTCGAAACGATGCCTCCTGTATCTAATGAGTCTAGGCTTCCTTCCGCAGCCCGCGGAATATAAGGCCCAGCAAGAACACGAAGATGGCTGCCCCGATGATGGCCGGGA (double strand) [PmntH del1]
MntR (Bacillus subtilis)
  binding: binds

## CCGAAGCTTTCTCCTAAATCACAGTTTAAATCAATCTGAAACACAGAATCCCTCCTGCCAAAGCAAACGATATGCTTTATGTCATTTATTGTCCCGAAATTCGGAACGACTATTCCGAATTTTTGAACTTTATTTCATTATAAGTGAATCATATCAGTTTGTGAAATACTTTTGTCAGAAAACCTACCATGGTCCCAGAATAAAACCTGCCAAACTAAAGAATTCGAT (double strand) [PpxpA probe 3]
AhrC (Bacillus subtilis)
  binding: binds more weakly

## TTTAGTTTGGCAGGTTTTATTCTGGGACCATGGTAGGTTTTCTGACAAAAGTATTTCACAAACTGATATGATTCACTTATAATGAAATAAAGTTCAAAAATTCGGAAGCTTCCG (double strand) [PpxpA probe 5]
AhrC (Bacillus subtilis)
  binding: binds more weakly

## ATGAAGCTTTTATCTACATCATATGACCATCCCGGTTTCTTGTCAACCGAAAATGTTCAAAATACACTTCTGAATTTTTCCCTGTTATGTAACATGATATGTAGGGATTCGTGATAAGGTCCCATATAAAAAGACATCGTTTCATTTCGAAACGATGCCTCCTGTATCTAATGAGTCTAGGCTTCCTTCCGCAGCCCGCGGAATATAAGGCCCAGCAAGAACACGAAGATGGCTGCCCCGATGATGGCCGGGA (double strand) [PmntH del2]
MntR (Bacillus subtilis)
  binding: no binding

## CCGAAGCTTTCTCCTAAATCACAGTTTAAATCAATCTGAAACACAGAATCCCTCCTGCCAAAGCAAACGATATGCTTTATGTCATTTATTGTCCCGAAATTCGGAACGACTATTCCGAATTTTTGAACTTTATTTCATTATAAGTGAATCATATCAGTTTGTGAAATACTTTTGTCAGAAAACCTACCATGGTCCCAGAATAAAACCTGCCAAACTAAAAAAGAGAGTCCATCTTAGGACTCTGAATTCGAT (double strand) [PpxpA probe 2]
AhrC (Bacillus subtilis)
  binding: binds

## GCGCTTTCAGCGAATGTGTGGAAAAAATGTTTCGTTTTTTATTCGCTGTGTGATTTTGCGTAATATTTACAATTCGATAGAATGCGAGAAGCACTGGTGTCCTTGGGTTTGATGGGATTTTTGGCGGAGCAAATAAATTGGATGAGAGAAAAAGTGTTCCTTCGTCACTATTTTTCTGTGGCGGGTGAATCATGTTTCTGTAGACCCACTGCGGATCAGCTTTGTAAGATAATAATAGGAAAATGTGAGCGAGAGGAGGTTTTGTATGGAGAGATATGATGAACTG (double strand) [PmneS]
AhrC (Bacillus subtilis)
  binding: binds
